In the supplement of paper PMC12764529:
± gives the half width of the 95% confidence interval.

What was measured:
[1] = folding stability dG unfold from trypsin proteolysis; higher = more stable
Outline: (§1)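 Unfolding free energy was derived, per protease or combined, by relating Bayesian-fitted K50 values from sequencing counts to a sequence-predicted unfolded-state K50 and a shared folded-state K50. The underlying digests exposed cysteine-free mini-proteins under 80 residues, in a PA-tagged cDNA display construct, to trypsin and chymotrypsin at 11 threefold-diluted concentrations and to a no-protease condition. A filter kept only designs with AlphaFold2 dimer inter-PAE above 15.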

[2] = folding stability dG unfold from chymotrypsin proteolysis; higher = more stable
Outline: as §1

[3] = folding stability dG unfold (combined trypsin and chymotrypsin); higher = more stable
Outline: as §1

| Sequence | folding stability dG unfold [1] [kcal/mol] | folding stability dG unfold [2] [kcal/mol] | folding stability dG unfold [3] [kcal/mol] |
| --- | --- | --- | --- |
| SAGGMPPEELEAASLEERIARVRAAGLETATVRRPDGSTLTIDLGEEGPVTITTTTPPGETTTATLPSAGGS [r8_51_JUSTAS] | -1.04 ± 0.55 | 0.975 ± 0.042 | 0.654 ± 0.08 |
| SAGGMPPGDPVKVNVQIRIRMRDPNGKKPELTVPIEYNVQSKEDARDAILKIAKELADEYGYEIEVFSAGGS [r8_149_TrROS] | 0.711 ± 0.041 | 1.52 ± 0.12 | 1.31 ± 0.24 |
| SAGGMPPGSFRVRARRPVPLFVRVRLPNDPDVTVTFPVTVPAELELPVNSPEALEALREAGFEIEPASAGGS [r8_482_TrMRF] | 0.608 ± 0.14 | 0.114 ± 0.33 | 0.357 ± 0.18 |
| SAGGMPVPVLIVVPEDKIEEIIKKIREETDEDVEIKAFKLPDGRVLLLITFNDPQLAEDFLKKFGFGSAGGS [r16_172_TrMRF] | 4.27 ± 0.23 | 5.17 ± 0.14 | 5.13 ± 0.17 |
| SAGGMPVRVLITYESGEIPVTIPVDPNKVVEAEVELEDKTVKITVDPKAKTIKVDAPPSFKFEVLDPSAGGS [r16_761_JUSTAS] | 0.35 ± 0.13 | 0.257 ± 0.084 | 0.277 ± 0.18 |
| SAGGMPVTVTIVVPPGTERELAEELAEKYAKEGADVEFEERPGGLVLTMTLPGGEVVTMEIRDPAQASAGGS [r16_406_JUSTAS] | 2.3 ± 0.056 | 2.382 ± 0.023 | 2.34 ± 0.057 |
| SAGGMPYRLDAVRVEVRPRPDGGPLLVVELTYPDGSRETAVFDSPEDLLRALENSPRFSEITLLPSVSAGGS [r16_757_TrMRF] | 1.01 ± 0.017 | 0.16 ± 0.088 | 0.739 ± 0.046 |
| SAGGMQALLRLPDTDEVVVLPDELLEAIASGDPERLAALPPEVREVISNVAELVVVPPPDGDPRPEGGSAGG [r13_233_TrMRF] | 0.419 ± 0.032 | 0.496 ± 0.15 | 0.614 ± 0.15 |
| SAGGMRIELVRTYIEEPDENGKLKGSGYREVLVLRPPPPVIRVPPELLEEAEELRKKLDGPVEPEELGSAGG [r19_315_JUSTAS] | 3.63 ± 0.38 | 3.6 ± 0.18 | 3.84 ± 0.42 |
| SAGGMRLRIVVKSEEEARELAEALAKKLKEEFPGLKIEVKVVKVEYNEETDLIVVEVEIKVELEDEEPSAGG [r13_585_TrROS_Hall] | 4.6 ± 0.33 | 4.42 ± 0.19 | 4.42 ± 0.35 |
| SAGGMSFTMTVPPSNPNQVVGTNVPVSDVPPNYAYTLHFPNTGTTTTIPVSQAEEVKAQPHIDEITATSAGG [r19_302_JUSTAS] | 0.688 ± 0.03 | 0.0302 ± 0.085 | 0.486 ± 0.04 |
| SAGGMSLEHVTEIVETVTHPDGTKTVTIRLSDPAIWAGEDPATAAALAEAVQAEHADEGVAVTVVGAPSAGG [r13_243_JUSTAS] | -0.642 ± 0.26 | 1.05 ± 0.042 | 0.585 ± 0.15 |
| SAGGMSPDQIWKAKLLSRKKGKNGSVYNIVIYNPDNPKPIFINKPGDNPEDVLKELEELVKKGPIDLESAGG [r13_286_TrMRF] | 0.354 ± 0.22 | 0.549 ± 0.21 | 0.468 ± 0.18 |
| SAGGMSVSFPVDSSEELKKLLPKDYLVEIVSTPPDGSKSVRVVRPEDLEIDLPEGEKYYFEIKFLPKESAGG [r13_461_TrMRF] | 0.442 ± 0.072 | -0.138 ± 0.093 | 0.203 ± 0.19 |
| SAGGMSVTVSTHLSPEELRELVREIVEKNPGLEVKAVEVTDPATGEWRAVPLDEVPADRPVTVRVDLSRSAG [r5_357_JUSTAS] | 0.506 ± 0.091 | 0.388 ± 0.12 | 0.495 ± 0.12 |
| SAGGMTEVSVSEELRAEGGGLERVLVVTITTVTKVYPVGSSNKVEYEESTIVIPADDPAALEAAGVLLSAGG [r13_670_JUSTAS] | 0.563 ± 0.07 | -0.319 ± 0.36 | 0.257 ± 0.16 |
| SAGGMTIFLPLENKEEVIEKLKKEGYKPVEVKEEGDVVTIKVEKKKDEKKEEITIVFYPPSKPEEPVSAGGS [r8_307_JUSTAS] | 2.77 ± 0.14 | 2.59 ± 0.085 | 2.68 ± 0.1 |
| SAGGMTITFTLEFDLEDDRRITVTATIDPTGDDVLITVRVELTLPNGEKLEFTATIVLPPGAHPDELISAGG [r13_3_TrMRF] | 4.15 ± 0.38 | 5.25 ± 0.24 | 5.53 ± 0.85 |
| SAGGMTITVKPPDGTVITYTSETLPEIIAKLDPNGTYTITIEVPKVDPSNGGARPIVKTYTVPKERISAGGS [r16_806_JUSTAS] | 0.865 ± 0.11 | 1.21 ± 0.17 | 1.19 ± 0.17 |
| SAGGMTITVPVDEEEAEEFIREATGELTALAEKYPDVPIEIEFPLKSGRVIRLRVYPKSKKVEIEVYDSAGG [r13_216_TrMRF] | 2.48 ± 0.057 | 2.559 ± 0.024 | 2.57 ± 0.045 |
| SAGGMTITVRVKAENPEEAIKKVEETVRSLGYRVVELKEVEVRYDEATGEVFVEATVEVEPLPEEEGSAGGS [r16_155_TrMRF] | 4.37 ± 0.13 | 4.81 ± 0.12 | 4.8 ± 0.12 |

| Sequence | folding stability dG unfold [1] [kcal/mol] | folding stability dG unfold [2] [kcal/mol] | folding stability dG unfold [3] [kcal/mol] |
| --- | --- | --- | --- |
| SAGGMTITVTVGPGKEEEAVEALKKKTGLKVELVETTPRPVRAPDGTVLEEVEEITIKITKPDPNLKESAGG [r13_943_JUSTAS] | -0.511 ± 0.21 | -0.269 ± 0.2 | -0.638 ± 0.45 |
| SAGGMTKEKALELAEEIAREFAKKHGIEKLELKVEDVVEKEDEVIVRLKIVYPDKVYELDLVVPKDYVSAGG [r13_611_TrMRF] | 2.69 ± 0.11 | 4.06 ± 0.13 | 3.7 ± 0.19 |
| SAGGMTLEELAARVGRVEVEEAEDGGRVLRVTIPLAGPGGPPAPRTFLIEIPPDRPDLTIAEVLARLGSAGG [r13_319_TrMRF] | 1.38 ± 0.064 | 1.84 ± 0.057 | 1.66 ± 0.07 |
| SAGGMTLEELKAKITKVEVEEREDGSLKLRLTIKVKNEDGSEEEIELTITLPEEEKNMSLEELLEKLLSAGG [r13_319_TrROS_Hall] | 4.26 ± 0.27 | 3.82 ± 0.12 | 4.03 ± 0.13 |
| SAGGMTLKIRVKDKEKALEALKALPGIEVKEVKVEKNENGELTVTVESKEALDALKKAGIEVEEIEPSAGGS [r16_381_TrROS_Hall] | 2.33 ± 0.15 | 3.18 ± 0.087 | 2.9 ± 0.16 |
| SAGGMTLNITVEIPGLGTTITKTFSANPSDYEKIARETEEENPEYKLTSVKVTYSPNSITIDATVELVSAGG [r13_196_JUSTAS] | 1.38 ± 0.17 | 2.38 ± 0.057 | 2.04 ± 0.21 |
| SAGGMTLTIEIVVPPGTTVEELKKALEELGYEITSIEVEYDPETDLVTVRMEIRLPPPPPVSEEEKKSAGGS [r16_584_TrROS_Hall] | 1.87 ± 0.076 | 3.23 ± 0.16 | 2.73 ± 0.17 |
| SAGGMTLTLIVPSKEEAERLAEALRALLPPGAKLEITVEEVTLKEDLPPDLPEVKEKKYLVVTIRLDSAGGS [r16_795_TrROS_Hall] | 3.03 ± 0.14 | 3.5 ± 0.08 | 3.34 ± 0.1 |
| SAGGMTLTLVLEANPPEAVEVAVARLLRELGFPDELKIEIDPVGDDKGRIIYPVTIEVNVPELAEKASAGGS [r8_85_TrMRF] | 2.19 ± 0.042 | 2.62 ± 0.036 | 2.41 ± 0.13 |
| SAGGMTLTVDEIKELLKKGYSLEEIKEALKKAGFEIVEIKKIEKKDGKIYIEIEFKKNKKIIKIEIPSAGGS [r8_179_TrROS_Hall] | 3.38 ± 0.24 | 4.35 ± 0.18 | 4.2 ± 0.35 |
| SAGGMTLVLRFPSKEEALEALRELAEALGLEVEITKIEIEEREVEDPETGEKRREVLITIEVKVKPPSAGGS [r16_587_TrROS_Hall] | 3.83 ± 0.37 | 4.62 ± 0.14 | 4.48 ± 0.29 |
| SAGGMTPEEARKLAEELAKKLEEEGKEVEVKVEVNKDGKVVKIEIKPEGEKVTITLPDGEKVLELELPSAGG [r13_693_TrROS_Hall] | 1.09 ± 0.048 | 1 ± 0.089 | 1.03 ± 0.25 |
| SAGGMTPEELEAAARAAAAALRAELEAGDPDVEVDLEVDPEKGTATFTVTDRATGRPRTLTVPFAELASAGG [r13_354_JUSTAS] | 0.871 ± 0.074 | 1.94 ± 0.054 | 1.53 ± 0.073 |
| SAGGMTTLTLETTDEGKPLGLEEILARLREALPGVPVEVLSADPAKGVVTIAVAPEAVPEIERAVAASAGGS [r8_235_JUSTAS] | 1.69 ± 0.038 | 2.1 ± 0.022 | 1.96 ± 0.074 |
| SAGGMTTTTTTYTIQLPNGETLTITITTTTLPGGITVTIPIGGTSPDQIAIAKELAEKLAAEIKEAASAGGS [r8_416_JUSTAS] | 2.89 ± 0.096 | 3.83 ± 0.1 | 3.55 ± 0.11 |
| SAGGMTTTTVEVKRLPNGSIERTLKTTVPLPNGDLVVTTTKSIVYREDGKVVKEEVLETETTLLPATSAGGS [r8_36_JUSTAS] | 2.58 ± 0.082 | 2.92 ± 0.077 | 2.77 ± 0.074 |
| SAGGMTVTLEIEIPAEELSEEELKALLEELFPNAEVTVERLPDGTLRITIRVEVPPAPPEVVVLPDKSAGGS [r16_535_TrROS_Hall] | 2.63 ± 0.082 | 2.97 ± 0.12 | 2.88 ± 0.12 |
| SAGGMTVTVKVKPDEYVIVEIENPVLDSTLTYVVPFNSPMTVTLPLPPDYKVKKITVVSPKKVSKELLSAGG [r13_119_JUSTAS] | 1.22 ± 0.013 | 2.05 ± 0.059 | 1.78 ± 0.059 |
| SAGGMTYVLPNGERLLVRVSVRTEPRLDPDRPELVLEPRVEIELFAVSPDLTLRPVPEELARELFEKESAGG [r13_809_TrMRF] | 0.891 ± 0.019 | 1.33 ± 0.07 | 1.21 ± 0.044 |
| SAGGMVDIYFPDAVIDDSGTKEDILEQLEKVTGKPIPEELREEILKGKTVEEIVELLKKRGFDVRVDSAGGS [r16_601_TrMRF] | 2.8 ± 0.12 | 3.4 ± 0.059 | 3.13 ± 0.12 |
| SAGGMVEIELEVDGKKIKITYDKETGKITIEIDGKKIEVELPEEDKGKSKEELLKKALEKAKEELKKSAGGS [r16_215_TrROS_Hall] | 2.46 ± 0.23 | 2.46 ± 0.11 | 2.49 ± 0.11 |
